Changes are numbered by the printed parent chain. Names may count otherwise. Where only a bound is given, the exact number is not on record here.

To fix the notation:
B1: Ic_S2_P5E.1_K5.1_C5.1_H5.1_A5.1_[T5C]_[T6G]_[A7T]_F5.1_[T8G]_[T9C]_[A10C]_T5.1 (ssRNA)
RNA: UUUGAUUAAUAUGAUAUCGUUCUUUCUUGUACGUGCCUUCUUUCUCGAUAUCAUAUUAAUCUUU
B2: Ic_S2_P5E.1_K5.1_C5.1_H5.1_A5.1_[T6G]_[A7T]_F5.1_[T8C]_[T9C]_[A10T]_T5.1 (ssRNA)
RNA: B1 RNA with C32U, G35C, C37U
B3: Ic_S2_P5E.1_K5.1_C5.1_H5.1_A5.1_[T5G]_[T6C]_F5.1_[T8C]_[T9C]_[A10G]_T5.1 (ssRNA)
RNA: B1 RNA with C32G, G33C, U34A, G35C, C37G
B4: Ic_S2_P5E.1_K5.1_C5.1_H5.1_A5.1_[A7T]_F5.1_[T8A]_[A10G]_T5.1 (ssRNA)
RNA: B1 RNA with C32U, G33U, G35A, C36U, C37G
B5: Ic_S2_P5E.1_K5.1_C5.1_H5.1_A5.1_[T6G]_[A7C]_F5.1_[T8C]_[T9G]_[A10G]_T5.1 (ssRNA)
RNA: B1 RNA with C32U, U34C, G35C, C36G, C37G
B6: Ic_S2_P5E.1_K5.1_C5.1_H5.1_A5.1_[T5G]_[T6C]_F5.1_[T8A]_[T9A]_[A10C]_T5.1 (ssRNA)
RNA: B1 RNA with C32G, G33C, U34A, G35A, C36A
B7: Ic_S2_P5E.1_K5.1_C5.1_H5.1_A5.1_[T5A]_[T6C]_[A7C]_F5.1_[T9A]_[A10G]_T5.1 (ssRNA)
RNA: B1 RNA with C32A, G33C, U34C, G35U, C36A, C37G
B8: Ic_S2_P5E.1_K5.1_C5.1_H5.1_A5.1_[T5A]_[T6A]_[A7C]_F5.1_[T8G]_[T9C]_[A10C]_T5.1 (ssRNA)
RNA: B1 RNA with C32A, G33A, U34C
B9: Ic_S2_P5E.1_K5.1_C5.1_H5.1_A5.1_[T5C]_[T6G]_[A7T]_F5.1_[T8C]_[T9G]_[A10T]_T5.1 (ssRNA)
RNA: B1 RNA with G35C, C36G, C37U
B10: Ic_S2_P5E.1_K5.1_C5.1_H5.1_A5.1_[T6C]_[A7T]_F5.1_[T8A]_[T9G]_[A10C]_T5.1 (ssRNA)
RNA: B1 RNA with C32U, G33C, G35A, C36G
B11: Ic_S2_P5E.1_K5.1_C5.1_H5.1_A5.1_[T5C]_F5.1_[T8C]_[T9G]_[A10C]_T5.1 (ssRNA)
RNA: B1 RNA with G33U, U34A, G35C, C36G
B12: Ic_S2_P5E.1_K5.1_C5.1_H5.1_A5.1_[T5A]_[T6A]_F5.1_[A10T]_T5.1 (ssRNA)
RNA: B1 RNA with C32A, G33A, U34A, G35U, C36U, C37U
B13: Ic_S2_P5E.1_K5.1_C5.1_H5.1_A5.1_[T5A]_[T6C]_[A7G]_F5.1_[T9A]_[A10G]_T5.1 (ssRNA)
RNA: B1 RNA with C32A, G33C, U34G, G35U, C36A, C37G
B14: Ic_S2_P5E.1_K5.1_C5.1_H5.1_A5.1_[A7T]_F5.1_[T9C]_[A10G]_T5.1 (ssRNA)
RNA: B1 RNA with C32U, G33U, G35U, C37G
B15: Ic_S2_P5E.1_K5.1_C5.1_H5.1_A5.1_[T5G]_[T6C]_F5.1_[T8G]_[T9C]_[A10T]_T5.1 (ssRNA)
RNA: B1 RNA with C32G, G33C, U34A, C37U
B16: Ic_S2_P5E.1_K5.1_C5.1_H5.1_A5.1_[T6C]_[A7G]_F5.1_[T8C]_[T9C]_[A10G]_T5.1 (ssRNA)
RNA: B1 RNA with C32U, G33C, U34G, G35C, C37G
B17: Ic_S2_P5E.1_K5.1_C5.1_H5.1_A5.1_[T6A]_[A7C]_F5.1_[T8C]_[T9A]_[A10T]_T5.1 (ssRNA)
RNA: B1 RNA with C32U, G33A, U34C, G35C, C36A, C37U
B18: Ic_S2_P5E.1_K5.1_C5.1_H5.1_A5.1_[T5G]_[A7C]_F5.1_[T8G]_[A10G]_T5.1 (ssRNA)
RNA: B1 RNA with C32G, G33U, U34C, C36U, C37G
B19: Ic_S2_P5E.1_K5.1_C5.1_H5.1_A5.1_[T5G]_[A7T]_F5.1_[T8C]_[T9C]_[A10T]_T5.1 (ssRNA)
RNA: B1 RNA with C32G, G33U, G35C, C37U
B20: Ic_S2_P5E.1_K5.1_C5.1_H5.1_A5.1_[T5C]_F5.1_[T8A]_[T9A]_[A10T]_T5.1 (ssRNA)
RNA: B1 RNA with G33U, U34A, G35A, C36A, C37U
B21: Ic_S2_P5E.1_K5.1_C5.1_H5.1_A5.1_[T5A]_[A7T]_F5.1_[T9A]_[A10G]_T5.1 (ssRNA)
RNA: B1 RNA with C32A, G33U, G35U, C36A, C37G

In the data set the target is T1, PUF4 RNA-binding domain (Saccharomyces cerevisiae, UniProt P25339 537-888).
T1 sequence: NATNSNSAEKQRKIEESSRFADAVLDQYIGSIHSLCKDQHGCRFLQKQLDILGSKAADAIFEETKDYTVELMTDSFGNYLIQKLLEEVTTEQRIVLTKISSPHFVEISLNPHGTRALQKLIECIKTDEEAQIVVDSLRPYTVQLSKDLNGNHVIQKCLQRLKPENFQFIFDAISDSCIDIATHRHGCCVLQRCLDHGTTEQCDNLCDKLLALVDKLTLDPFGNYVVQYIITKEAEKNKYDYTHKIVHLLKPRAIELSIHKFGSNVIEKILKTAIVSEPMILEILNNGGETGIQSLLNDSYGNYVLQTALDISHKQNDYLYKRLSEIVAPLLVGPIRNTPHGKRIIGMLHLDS
In words: Mg; RNA-MaP; 20 mM Na-HEPES pH 7.4, 30 mM KOAc, 0.75 mM MgCl2, 0.1% Tween-20, 5% glycerol, 0.1 mg/mL BSA, 2 mM DTT; 25 C; 0.0125-409.6 nM protein. Particulars: tags: N-His6-TEV cleaved; C-SNAP kept, Cy3B-labelled; label: tethered on chip by stalled RNA polymerase.
In the case of UCUCUUUGUGUAUCAUCUCUU (ssRNA) [Ib_S1_P4E.1_K4.1_C4.1_H4.1_[A4G]_A4.1_F4.1_[T8C]_T4.1], the affinity, expressed as Kd, was 30.1 nM.

In the case of B1, the dissociation constant (Kd) (usually a measure of binding affinity in units of concentration) is 205 nM.

Take B2: binding was put at a Kd of 21.6 nM.

For B3, the Kd came out at 1330 nM.

Molecule B4 returned a dissociation constant (Kd) of 15.8 nM.

Molecule B5 displayed a dissociation constant Kd of 1340 nM.

Consider B6, for which the Kd was 653 nM.

On to B7, for which the dissociation constant Kd was determined as 28.5 nM.

The molecule B8 showed a Kd of 611 nM.

Molecule B9 returned a Kd of 207 nM.

B10 gave an equilibrium dissociation constant (Kd) of 23.8 nM.

B11 registered a Kd of 641 nM.

B12: the dissociation constant Kd turned out to be 53.3 nM.

B13 displayed a dissociation constant (Kd) of 69.1 nM.

Molecule B14 showed a Kd of 42.9 nM.

The molecule B15 displayed a dissociation constant (Kd) of 905 nM.

In turn, B16 showed a dissociation constant (Kd) of 1530 nM.

B17 displayed a Kd of 13.7 nM.

B18 showed an equilibrium dissociation constant (Kd) of 492 nM.

B19 showed a Kd of 175 nM.

As to B20, binding was characterised by a dissociation constant (Kd) of 25.3 nM.

Molecule B21 had a Kd of 5.21 nM.

UCUCUUUGCAUAUAAUCUCUU (ssRNA) [Ib_S1_P4E.1_K4.1_C4.1_H4.1_[T3C]_A4.1_F4.1_[T8A]_T4.1] had a Kd of over 2300 nM.

(Values after publication PMC9352680, “A comprehensive thermodynamic model for RNA binding by the Saccharomyces cerevisiae Pumilio protein PUF4”.)
